From the supplement of paper PMC9170038

These sequences were tested on MS2 coat protein (assay: apparent KD of MS2 coat protein; higher = weaker reporter binding). Settings: Eterna round: R107; input ligand: theophylline 2 mM.
Procedure, shortened: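 Apparent KD is reported per design as the median of normalised binding-curve fits across its clusters. The RNA switches were made by on-chip transcription from Illumina sequencing clusters. SNAP-549-labelled MS2 coat protein was then added in twofold steps (0.7 or 1.5 nM to 3 µM; 0.8–1.5 h to 10–20 min per step) in 100 mM Tris-HCl pH 7.5, 80 mM KCl, 4 mM MgCl2, without or with constant ligand.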

In order of falling “apparent KD of MS2 coat protein” value:
1. ACGAUAGGACUUGAGGAUCACCCAAGUGAUACCAGCCUGGAAACAGGCCCUUGGCAGCACUAAUACUCCAAUAACCUAUCGAAUA [TheoAX 14 #MicroSwitchBubble #AlternativeMS2]  387 nM
2. GUUAUGAUAAGAAGGAGCGUCGAAAAUGGGUAAACAUGAGGAUCACCCAUGUAAAGGGAACGACAGGUAGGUCGCUUAUUAUAAC [AstromonsSSArgB#20]  161 nM
3. UGUAUGGACUGAAGGAGCGGAAAAUAAAUCUGAGGAUCACCCAGGUAAUAGGCGAAAGCCAUCCAGGUAGGUCGCAGUCCAUACU  133 nM
4. GCGAUGGAGCGAAGGAGCGUGCUGGUACAUGAGGAUCACCCAUGUGAGUCGCAUCGCUAAGCACAGGUAGGUCGCGCUCCAUCGC [EAB NP+V+V2 #10]  83 nM
5. GGUUCAUCGUCGGCCGCCACUCACAUGAGGUGGAGCUGUAAACAUGAGGAUCACCCAUGUUGUUAGAGGACCGGGACGUGACGGC [theeternabot_exclusion_MS2_Trp_B_6]  42.1 nM
6. CCGUUUUAUGGCGACAUAGGGCGGACUGAAGGAGCGGUAUAAAAGCCAGGUAGGUCGCAGAGAUCCACAUGAGGAUCACCCAUGU [!0.aA]  41 nM
7. AACGUAUACAGAAGGAGCGUGAUUUAUUAUUCUUUAAGAUAUACAUGAGGAUCACCCAUGUCACAGGUAGGUCGCUGUAUUCGUA [JR_ExcArginiB_Sub025]  36.7 nM
8. CUAUAUUUAUCGGCCGCCACUUACUCAUGAGGUAACAACAUGAGGAUCACCCAUGUUUGAGGAUCAAGGACCGGGAUAAAUAUAG [AstrosSSTryB#17]  31 nM
9. CGAAUAUAGACGGCCGCCACUCUACAAACAUGAGGAUCACCCAUGUUCACAUAGUGGAAACACAUGAGGACCGGGUCAUAGGCAU [#18 Same State - Tryptophan B]  21.3 nM
10. AUGACUCACAAAGAAGAUAAAAUGGGUGAACGAGGACCGGUACGGCCGCCACUCGGACAUGAGGAUCACCCAUGUCCAUGUGCAA [#24 Exclusion Tryptophan A]  21 nM
11. CUCCCGUGGUCGGCCGCCACUGGAGGCCUCGCGCGACAUGAGGAUCACCCAUGUUGGCCCGGCUUCAGGACCGGGAUCGCGUGAG [#1 Same State - Tryptophan B Attempt #8 (HarryS)]  12.6 nM

Same assay, conditions: Eterna round: R107; input ligand: tryptophan 2.4 mM

In order of falling “apparent KD of MS2 coat protein” value:
1. ACGAUAGGACUUGAGGAUCACCCAAGUGAUACCAGCCUGGAAACAGGCCCUUGGCAGCACUAAUACUCCAAUAACCUAUCGAAUA [TheoAX 14 #MicroSwitchBubble #AlternativeMS2]  395 nM
2. GUUAUGAUAAGAAGGAGCGUCGAAAAUGGGUAAACAUGAGGAUCACCCAUGUAAAGGGAACGACAGGUAGGUCGCUUAUUAUAAC [AstromonsSSArgB#20]  154 nM
3. UGUAUGGACUGAAGGAGCGGAAAAUAAAUCUGAGGAUCACCCAGGUAAUAGGCGAAAGCCAUCCAGGUAGGUCGCAGUCCAUACU  105 nM
4. GUCAGUGACUGAAGGAGCGACAUGAGGAUCACCCAUGUCUCCCGUUAUGGGAGUUCCUUAGGUCAGGUAGGUCGCAGUCACUGAC [#1 Exclusion - Arginine B Attempt #29 (Inspired by Omei)]  95.7 nM
5. UUCGUUUGCGGAAGGAGCGACGGACAUCGGUGAACAACGCACAUGAGGAUCACCCAUGUACGUCAGGUAGGUCGCCGCUAAGAGU [XArg-B3]  73.6 nM
6. AUCCACAGCCGAAGGAGCGCAGUAGGAUGACAUGAGGAUCACCCAUGUGUGUGAUGUGGAUUGCAGGUAGGUCGCGGAGUGGGUU [Exclusion - Arginine B (Freestyle 8)]  72.6 nM
7. GACAUGAGGAUAGAUACCAGCGACAUGAGGAUCACAUGAGGAUCACCCAUGUGUAGUAUACGCCCUUGGCAGCUAACAUGAGGAU [Same State Theophylline B 3]  68.1 nM
8. GCGAUGGAGCGAAGGAGCGUGCUGGUACAUGAGGAUCACCCAUGUGAGUCGCAUCGCUAAGCACAGGUAGGUCGCGCUCCAUCGC [EAB NP+V+V2 #10]  66.5 nM
9. CGUAUUGUAACUGAUACCAGUGUACUGACAUGAGGAUCACCCAUGUUGGGUUUUGUUGUACACCCUUGGCAGCAGAAUCAAUACG [AstrosExyTheB#5]  65.8 nM
10. AACGUAUACAGAAGGAGCGUGAUUUGUGUUACUCAUUCAUAUACAUGAGGAUCACCCAUGUCACAGGUAGGUCGCUGUAUUCGUA [JR_ExcArginiB_Sub022]  53.8 nM
11. CCGUUUUAUGGCGACAUAGGGCGGACUGAAGGAGCGGUAUAAAAGCCAGGUAGGUCGCAGAGAUCCACAUGAGGAUCACCCAUGU [!0.aA]  51 nM
12. UGUACAUGAGGAUCACCCAUGUUACGCGAUACCAGACAUGAGAGUGUCCCUUGGCAGCGUGGAGCUGAUACGGCGGGAAGCCGGA [#10 SameState-TheophyllineA]  45.9 nM
13. AAAAUCCUACCUGAGGAUCACCCAGGUGAAGGAGCGCCCGAAAGGGCAGGUAGGUCGCACCUGAGGAUCACCCUGGUAAACCUAA [ArgEX 22 #DoubleMS2 #OpenEnded]  40.6 nM
14. UGUAUGGACUGAAGGAGCGCCUCAAAAUAACUUGAGGAACACCCAAGUAAGGCGAAAGCCGGGCAGGUAGGUCGCAGUCCAUACU [ArgBX 3]  34.6 nM
15. AACGUAUACAGAAGGAGCGUGAUUUAUUAUUCUUUAAGAUAUACAUGAGGAUCACCCAUGUCACAGGUAGGUCGCUGUAUUCGUA [JR_ExcArginiB_Sub025]  34.6 nM
16. UCAGCACAUGAGGAUCACCCAUGUCGUGAUACCAGCCUGUGCGAAGGCCCUUGGCAGCACAGUCCCGAUUUGCUUAUAUGCACUU [theeternabot_sameState_MS2_Theo_A_48]  34.4 nM
17. ACAUGAGGAUCACCCAUGUAGCGUAGGGAAGGAGCGGAAUAAAGUCCAGGUAGGUCGCCCAUAUGAUGAUCUCACUUAUUAUCGA [#12 Same State - Arginine A]  30.5 nM
18. UCUAGUGCGGGAAGGAGCGCCAUACAUGAGGAUCACCCAUGUUGAGCAUGCUCGUGUACUAGGCAGGUAGGUCGCCCGCUCUACG [Radionle]  23.3 nM
19. UGUGUCGUCUGAAGGAGCGGCUCUUGAUCCUCGUGGGACAUGAGGAUCACCCAUGUCUCGAGCCAGGUAGGUCGCAGGCGGCACA [#27 Exclusion - Arginine B]  20.7 nM
20. AGUAGUUGACAAAAGUCAGCUACAAUUGAAGGAGCGGGAUCCUUCCCAGGUAGGUCGCAAUAACAUGAGGAUCACCCAUGUCAAA [ArgAS 4 #BothOrNeither #OpenEnded]  20.3 nM
21. AAGGUGAUCCUCGAUACCAGCUCAACAUGAGGAUCACCCAUGUAAGCCUGGAAACAGGCGAGCCCUUGGCAGCGAGUUACAUCAA [(M)'-(Theo1)-(Ms2)-(Theo2)-(M'')]  18.6 nM
22. AAAUAAAUACAUGAGGAUCACCCAUGUGAAGGAGCGCGCGUUAGCGCAGGUAGGUCGCACAUGAAUAACUCCGCGCGAAAGCGCA [MAT - Exclusion Arginine A - Mod of Eli - D11]  16.4 nM
23. UUCAAAGGGAACGGUGCUGGUAGCAGAGAUACCAGAGUAAUGAUACUCCCUUGGCAGCUCAGUACAUGAGGAUCACCCAUGUAAU [Exclusion Theophylline A GF24]  15.1 nM
24. ACAUGAGGAUCACCCAUGUACUGGAUCUAACGAGGACCGGUACGGCCGCCACUCGAAGAUAGGACUAUGGAAACAUAGCUUAUCA [Design 1]  14.6 nM
25. AGCUCAUAGAGUGAUACCAGACUACAUGAGGAUCACCCAUGUUACUUUUAAAUAUCAUUUGUCCCUUGGCAGCACAUGAAGAGCA [JR_Nu_ExcTheophyB_Sub017]  13.8 nM
26. AGUCUUGAACGAAGGAGCGACGUACAUGAGGAUCACCCAUGUGGAGCGAAAGCUCCGUAACGUCAGGUAGGUCGCGUUCGAGACA [Omei Arginine B SS A v3]  12.5 nM
27. UGUAUGGACUGAAGGAGCGACUCAAAAUAACAUGAGGAUCACCCAUGUAAGGCGAAAGCCGGUCAGGUAGGUCGCAGUCCAUACU [ArgBX 3]  11.6 nM
28. UGGAAAGCACAUGAGGAUCACCCAUGUGAUACCAGCUGAAACUAAGGCCCUUGGCAGCACAUGGUACCAACCCUUUGGUAGUCCA [Vearedqu]  10.3 nM
29. AAGUAAACAUGAGCAAAGCUCAUGUGCGAAGGAGCGGCGGAAACGCCAGGUAGGUCGCGCACAUGAGCAUCAGCCAUGUGUAUCA [Omei Arginine B SS A v2]  9 nM
